The values below come from US11572572B2, “A138T mutation-containing plant EPSPS mutant, and encoding gene and application thereof” (GEVOTO LLC, priority 2017, dated 2023).

Where a chain is given by its changes, count along the chain named.

Experiment [1] deals with transgenic rice seedlings. The experiment can be described thus: Glyphosate resistance of EPSPS mutants in transgenic rice sprayed with glyphosate (Example 8). It is filed as in vivo, rice (Nipponbare). The source says: The glyphosate resistance of the EPSPS mutants of the above examples in transgenic rice was detected by the following method.
Plasmids of monoclonal resistant strain comprising pADV5-EPSPS of Examples 1-4 (containing the EPSPS mutant genes) were extracted in accordance with a conventional method. They were subjected to double enzymatic digestion with Pacl and BstEII to recover small fragments, and then the small fragments were ligated, using T4 DNA ligase, to a pGVP1 vector subjected to double enzymatic digestion in the same manner, to obtain a pGVP1-EPSPS vector having a structure as shown in FIG. 8.
The pGVP1-EPSPS vector was transformed into EHA105 (Agrobacterium tumefaciens) competent cells, and single clones were picked out for colony PCR detection to obtain positive strains. Then, the positive strains were inoculated into and propagated in 1 mL of a YEP medium containing 50 μg·mL^−1 kanamycin and 50 μg·mL^−1 rifampicin, and stored at −80° C. or used in subsequent experiments.
400 ul of a strain containing the target gene vector stored at −80° C. was added to a culture dish with a solid medium containing YEP+50 μg/mL rifampicin+50 μg/mL kanamycin and cultured in the dark at 28° C. for 24 hours, and then the bacterium was added to an infection medium and adjusted to OD=0.2 as an infection solution.
Disinfection and Pre-culture: seeds of mature rice (Nipponbare) were manually dehulled. Full seeds with no bacterial plaques were selected and disinfected in accordance with the following steps: the seeds were placed in a 50 ml sterile centrifuge tube and disinfected with the added 70% ethanol in water for 30 seconds, ethanol solution was poured out, and the seeds were washed once with sterile water; 10 to 20 ml of 2.6% sodium hypochlorite solution was added to soak and disinfect the seeds for 20 minutes. The sodium hypochlorite solution was poured out, and the seeds were soaked and washed with sterile water for 6 or 7 times, for 3 minutes each time.
Induction and Subculture: the seeds were placed on and blotted with sterile filter paper, and the mature embryos were placed in an induction medium, with 12 embryos per dish. After the operation was completed, the culture dishes were sealed with parafilm and underwent culturing in the dark at 30° C. for 21 to 28 days. Callus tissue was transferred to a fresh medium and continued to be cultured for about 7 to 14 days. Spherical callus tissue with a dimension of 1 to 2 mm was taken as an infection receptor.
The callus tissue was placed into a centrifuge tube or culture cup, infected in the prepared Agrobacterium suspension added thereto for 10 minutes, and shaken several times during the period; the bacterial solution was poured out, the callus tissue was taken out and placed on sterile filter paper for absorbing the bacterial solution from its surface (for about 30 minutes); the callus tissue was placed on sterile filter paper in culture dishes and cultured in the dark at 25° C. for 2 or 3 days.
Recovery Culture: the co-cultured callus tissue was inoculated on a recovery medium and cultured in the dark at 30° C. for 5 to 7 days.
Primary Screening: the callus was transferred to screening medium 1 (51) and cultured in the dark at 30° C. for 14 days.
Secondary Screening: the callus was then transferred to screening medium 2 (S2) and cultured in the dark at 30° C. for 14 days.
Primary Differentiation: the screened resistant callus tissue was transferred to a differentiation medium and cultured for about 21 days at 30° C. under exposure to light for 19 hours.
Secondary Differentiation: new young shoots were selected and moved to a fresh differentiation medium and continued to be cultured for about 21 days.
When the new seedlings grew to about 2 cm, they were moved to a rooting medium and cultured for 3 to 4 weeks at 30° C. under exposure to light (for 16/8 h). […]

Experiment [2] concerns double-knockout Escherichia coli strain (EDCE). Put plainly: Growth of double-knockout E. coli (EDCE) transformed with Oryza sativa EPSPS genes in glyphosate media (Example 5). Type of experiment: cell-based. The following applies: for growth status of transformed Escherichia coli: Example 5, FIG. 1. The source says: An Escherichia coli strain transformed with the Oryza sativa EPSPS mutant I-encoding gene according to Example 1 was used as Experimental Group 1 (having only the A155(138)T mutation).
An Escherichia coli strain transformed with the Oryza sativa EPSPS mutant II-encoding gene according to Example 2 was used as Experimental Group 3 (having the G111(96)A mutation and A155(138)T mutation).
An Escherichia coli strain transformed with a wild-type Oryza sativa EPSPS-encoding gene (SEQ ID NO: 14, encoding wild-type Oryza sativa EPSPS set forth in SEQ ID NO: 5) was used as a control group.
The glyphosate resistance of the Oryza sativa EPSPS mutant I-encoding gene and the encoded Oryza sativa EPSPS mutant I in Escherichia coli, and the glyphosate resistance of the Oryza sativa EPSPS mutant II-encoding gene and the encoded Oryza sativa EPSPS mutant II in Escherichia coli were verified by detecting the growth statuses of the transformed Escherichia coli in media containing different concentrations of glyphosate (0 mM, 1 mM, 2 mM, 20 mM) (media obtained by using M9 as a basal medium and then adding certain concentrations of antibiotics Spec (Spectinomycin), Gen (Gentamycin), and Amp (Ampicillin) and different concentrations of glyphosate).
Here, the Escherichia coli strain used was an double-knockout Escherichia coli strain (Escherichia coli strain DH5a from which an EPSPS gene and a C-P Lyase gene were knocked out, named EDCE, which may be prepared by a method with reference to Chinese Patent Application No. 2016103256926).
The detection was carried out by a method well known in the art, which was briefly described below. Gene encoding Oryza sativa EPSPS mutants was synthesized by a chemical synthesis method, wherein enzymatic digestion sites (Pacl and Sbfl) were introduced at both ends of the gene. The gene were enzymatically cleaved and then ligated in the presence of ligase to an expression vector (e.g., pADV5 vector having a structure as shown in FIG. 4) subjected to the same enzymatic digestion treatment, and then were transformed into the double-knockout Escherichia coli strain. After verification, positive clones were picked out and inoculated and grown in media containing glyphosate. The growth statuses were observed.

[3] abbreviates: 1X dose glyphosate (1,060 g/ha), day 10 after spraying.
Where [4] appears, read: 2X dose glyphosate (2,120 g/ha) on survivors of 1X, after another 10 days.
Setting [5] is: 5X dose glyphosate (5,300 g/ha) on survivors of 2X, after additional 10 days.
Where [6] appears, read: 20X dose glyphosate (21,200 g/ha) on survivors of 5X, after further 10 days.
Where [7] appears, read: medium containing 1 mM glyphosate.
The mark [8] stands for this setting: medium containing 2 mM glyphosate.
Where [9] appears, read: medium containing 20 mM glyphosate.

B1: R2: Oryza sativa EPSPS mutant having only the G111(96)A mutation (SEQ ID NO: 2), encoding gene SEQ ID NO: 16 (protein)
chain: MASNAAAAAAKAEEIVLQPIREISGAVQLPGSKSLSNRILLLSALSEGTTVVDNLLNSEDVHYMLEALKALGLSVEADKVAKRAVVVGCGGKFPVEKDAKEEVQLFLGNAATAMRPLTAAVTAAGGNATYVLDGVPRMRERPIGDLVVGLKQLGADVDCFLGTECPPVRVKGIGGLPGGKVKLSGSISSQYLSALLMAAPLALGDVEIEIIDKLISIPYVEMTLRLMERFGVKAEHSDSWDRFYIKGGQKYKSPGNAYVEGDASSASYFLAGAAITGGTVTVQGCGTTSLQGDVKFAEVLEMMGAKVTWTDTSVTVTGPPREPYGKKHLKAVDVNMNKMPDVAMTLAVVALFADGPTAIRDVASWRVKETERMVAIRTELTKLGASVEEGPDYCIITPPEKLNITAIDTYDDHRMAMAFSLAACADVPVTIRDPGCTRKTFPNYFDVLSTFVRN
modifications: Oryza sativa EPSPS mutant with only G111(96)A mutation
Turning to B1, the “% ++&+++ (percentage of moderately and highly glyphosate resistant plants in total plants observed)” value turned out to be 69.2% in experiment [1] (setting [3]), 61.5% in experiment [1] (setting [4]), 46.2% in experiment [1] (setting [5]) and 15.4% in experiment [1] (setting [6]). Moreover, the “plant number with resistance + (low glyphosate resistant)” value in experiment [1] (setting [3]) was determined as 2; in experiment [1] (setting [4]), 2; in experiment [1] (setting [5]) it was 2; in experiment [1] (setting [6]), 4. Also, the “plant number with resistance ++ (moderately glyphosate resistant)” value in experiment [1] (setting [3]) came to 1; in experiment [1] (setting [4]) it was 2; in experiment [1] (setting [5]), 3; in experiment [1] (setting [6]) it was 1. Moreover, the “plant number with resistance +++ (highly glyphosate resistant)” value is listed as 8 in experiment [1] (setting [3]), 6 in experiment [1] (setting [4]), 3 in experiment [1] (setting [5]) and 1 in experiment [1] (setting [6]). Moreover, the “plant number with resistance − (non-glyphosate resistant, withered or dead)” value in experiment [1] (setting [4]) worked out at 3; in experiment [1] (setting [5]), 5; in experiment [1] (setting [6]), 7. Besides, the “growth status of transformed Escherichia coli” value in experiment [2] (setting [7]) is listed as “showed bacterial plaques”; in experiment [2] (setting [8]), “could not grow”; in experiment [2] (setting [9]), “could not grow”.

B2: R3: Oryza sativa EPSPS mutant II with G111(96)A and A155(138)T (SEQ ID NO: 7), encoding gene SEQ ID NO: 17 (protein)
chain: B1 chain with A155T
modifications: Oryza sativa EPSPS mutant with mutations G111(96)A and A155(138)T
For the molecule B2, the “% ++&+++ (percentage of moderately and highly glyphosate resistant plants in total plants observed)” value is recorded as 70.8% in experiment [1] (setting [3]), 66.7% in experiment [1] (setting [4]), 50.0% in experiment [1] (setting [5]) and 22.9% in experiment [1] (setting [6]). In addition, the “plant number with resistance + (low glyphosate resistant)” value in experiment [1] (setting [3]) came to 1; in experiment [1] (setting [4]), 0; in experiment [1] (setting [5]), 0; in experiment [1] (setting [6]) it was 7. In addition, the “plant number with resistance ++ (moderately glyphosate resistant)” value in experiment [1] (setting [3]) amounted to 9; in experiment [1] (setting [4]) it was 4; in experiment [1] (setting [5]) it was 13; in experiment [1] (setting [6]) it was 7. Besides, the “plant number with resistance +++ (highly glyphosate resistant)” value in experiment [1] (setting [3]) came out at 25; in experiment [1] (setting [4]) it was 28; in experiment [1] (setting [5]), 11; in experiment [1] (setting [6]), 4. Further, the entries for the “plant number with resistance − (non-glyphosate resistant, withered or dead)” value in experiment [1] (setting [4]), in experiment [1] (setting [5]) and in experiment [1] (setting [6]) were 16, 24 and 30, respectively. Moreover, in experiment [2] (Example 5), the “glyphosate concentration of medium in which the E. coli strain was kept in a growing state” value was “up to 20 mM”. For the same molecule, the “growth status of transformed Escherichia coli” value is recorded as “showed bacterial plaques” in experiment [2] (setting [7]), “could grow normally” in experiment [2] (setting [8]) and “could grow normally” in experiment [2] (setting [9]).
